Laboratory results: IntAct's records for PubMed 31515488

B1: Endothelial transcription factor GATA-2 (Homo sapiens), P23769 (parent)
chain: MEVAPEQPRWMAHPAVLNAQHPDSHHPGLAHNYMEPAQLLPPDEVDVFFNHLDSQGNPYYANPAHARARVSYSPAHARLTGGQMCRPHLLHSPGLPWLDGGKAALSAAAAHHHNPWTVSPFSKTPLHPSAAGGPGGPLSVYPGAGGGSGGGSGSSVASLTPTAAHSGSHLFGFPPTPPKEVSPDPSTTGAASPASSSAGGSAARGEDKDGVKYQVSLTESMKMESGSPLRPGLATMGTQPATHHPIPTYPSYVPAAAHDYSSGLFHPGGFLGGPASSFTPKQRSKARSCSEGRECVNCGATATPLWRRDGTGHYLCNACGLYHKMNGQNRPLIKPKRRLSAARRAGTCCANCQTTTTTLWRRNANGDPVCNACGLYYKLHNVNRPLTMKKEGIQTRNRKMSNKSKKSKKGAECFEELSKCMQEKSSPFSAAALAGHMAPVGHLPPFSHSGHILPTPTPIHPSSSLSFGHPHPSSMVTAMG
B2: Coiled-coil domain-containing protein 74A (Homo sapiens), Q96AQ1 (parent)
chain: MSGAGVAAGTRPPSSPTPGSRRRRQRPSVGVQSLRPQSPQLRQSDPQKRNLDLEKSLQFLQQQHSEMLAKLHEEIEHLKRENKDLHYKLIMNQTSQKKDGPSGNHLSRASAPLGARWVCINGVWVEPGGPSPARLKEGSSRTHRPGGKRGRLAGGSADTVRSPADSLSMSSFQSVKSISNSGKARPQPGSFNKQDSKADVSQKADLEEEPLLHNSKLDKVPGVQGQARKEKAEASNAGAACMGNSQHQGRQMGAGAHPPMILPLPLRKPTTLRQCEVLIRELWNTNLLQTQELRHLKSLLEGSQRPQAAPEEASFPRDQEATHFPKVSTKSLSKKCLSPPVAERAILPALKQTPKNNFAERQKRLQAMQKRRLHRSVL
B3: "N-acyl-aromatic-L-amino acid amidohydrolase (carboxylate-forming)" (Homo sapiens), Q96HD9 (parent)
chain: MCSLPVPREPLRRVAVTGGTHGNEMSGVYLARHWLHAPAELQRASFSAVPVLANPAATSGCRRYVDHDLNRTFTSSFLNSRPTPDDPYEVTRARELNQLLGPKASGQAFDFVLDLHNTTANMGTCLIAKSSHEVFAMHLCRHLQLQYPELSCQVFLYQRSGEESYNLDSVAKNGLGLELGPQPQGVLRADIFSRMRTLVATVLDFIELFNQGTAFPAFEMEAYRPVGVVDFPRTEAGHLAGTVHPQLQDRDFQPLQPGAPIFQMFSGEDLLYEGESTVYPVFINEAAYYEKGVAFVQTEKFTFTVPAMPALTPAPSPAS
partner: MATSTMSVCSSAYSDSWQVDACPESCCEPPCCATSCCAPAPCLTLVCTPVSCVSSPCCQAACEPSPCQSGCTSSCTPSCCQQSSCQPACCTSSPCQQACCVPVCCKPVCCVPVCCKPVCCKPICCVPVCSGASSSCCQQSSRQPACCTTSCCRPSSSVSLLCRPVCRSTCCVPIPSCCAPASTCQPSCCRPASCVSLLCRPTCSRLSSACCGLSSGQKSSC
B4: Syntaxin-3 (Homo sapiens), Q13277 (parent)
chain: MKDRLEQLKAKQLTQDDDTDAVEIAIDNTAFMDEFFSEIEETRLNIDKISEHVEEAKKLYSIILSAPIPEPKTKDDLEQLTTEIKKRANNVRNKLKSMEKHIEEDEVRSSADLRIRKSQHSVLSRKFVEVMTKYNEAQVDFRERSKGRIQRQLEITGKKTTDEELEEMLESGNPAIFTSGIIDSQISKQALSEIEGRHKDIVRLESSIKELHDMFMDIAMLVENQGEMLDNIELNVMHTVDHVEKARDETKKAVKYQSQARKKLIIIIVLVVVLLGILALIIGLSVGLN
partner: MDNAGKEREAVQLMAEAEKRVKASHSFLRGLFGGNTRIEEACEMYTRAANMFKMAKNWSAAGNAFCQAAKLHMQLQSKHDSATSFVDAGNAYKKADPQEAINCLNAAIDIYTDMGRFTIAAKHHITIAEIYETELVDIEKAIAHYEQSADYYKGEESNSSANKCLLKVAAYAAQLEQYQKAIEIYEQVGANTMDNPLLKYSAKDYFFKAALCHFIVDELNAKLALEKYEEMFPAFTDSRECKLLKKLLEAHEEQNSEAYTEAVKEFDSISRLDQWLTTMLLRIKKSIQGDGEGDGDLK
B5: Keratin, type I cytoskeletal 13 (Homo sapiens), P13646 (parent)
chain: MSLRLQSSSASYGGGFGGGSCQLGGGRGVSTCSTRFVSGGSAGGYGGGVSCGFGGGAGSGFGGGYGGGLGGGYGGGLGGGFGGGFAGGFVDFGACDGGLLTGNEKITMQNLNDRLASYLEKVRALEEANADLEVKIRDWHLKQSPASPERDYSPYYKTIEELRDKILTATIENNRVILEIDNARLAADDFRLKYENELALRQSVEADINGLRRVLDELTLSKTDLEMQIESLNEELAYMKKNHEEEMKEFSNQVVGQVNVEMDATPGIDLTRVLAEMREQYEAMAERNRRDAEEWFHTKSAELNKEVSTNTAMIQTSKTEITELRRTLQGLEIELQSQLSMKAGLENTVAETECRYALQLQQIQGLISSIEAQLSELRSEMECQNQEYKMLLDIKTRLEQEIATYRSLLEGQDAKMIGFPSSAGSVSPRSTSVTTTSSASVTTTSNASGRRTSDVRRP

Variants of: B1
Conditions: with fhl3_human FHL3, Q13643
Chain of fhl3_human FHL3, Q13643 (Q13643 whole entry): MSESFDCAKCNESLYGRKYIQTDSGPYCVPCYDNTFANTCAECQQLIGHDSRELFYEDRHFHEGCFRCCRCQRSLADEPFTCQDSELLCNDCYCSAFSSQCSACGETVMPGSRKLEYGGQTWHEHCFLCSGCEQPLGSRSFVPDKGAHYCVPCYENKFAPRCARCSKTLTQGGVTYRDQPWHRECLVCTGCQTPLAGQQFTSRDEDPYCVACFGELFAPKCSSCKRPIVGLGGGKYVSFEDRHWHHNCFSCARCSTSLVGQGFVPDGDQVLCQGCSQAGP

Variant	effect of a mutation on the interaction
A164T	with no effect

Variants of: B1
Conditions: with psa3_human PSMA3, P25788
Chain of psa3_human PSMA3, P25788 (P25788 whole entry): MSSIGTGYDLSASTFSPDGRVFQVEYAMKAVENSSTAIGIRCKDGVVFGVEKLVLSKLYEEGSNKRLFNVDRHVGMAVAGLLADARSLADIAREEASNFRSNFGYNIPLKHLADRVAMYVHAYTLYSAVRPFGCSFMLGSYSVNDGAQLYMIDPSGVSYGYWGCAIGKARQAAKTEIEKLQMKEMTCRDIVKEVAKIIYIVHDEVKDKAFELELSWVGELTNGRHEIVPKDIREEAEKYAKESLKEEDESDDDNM

Variant	effect of a mutation on the interaction
A164T	with no effect

Variants of: B1
Conditions: with tri23_human TRIM23, P36406
Chain of tri23_human TRIM23, P36406 (P36406 whole entry): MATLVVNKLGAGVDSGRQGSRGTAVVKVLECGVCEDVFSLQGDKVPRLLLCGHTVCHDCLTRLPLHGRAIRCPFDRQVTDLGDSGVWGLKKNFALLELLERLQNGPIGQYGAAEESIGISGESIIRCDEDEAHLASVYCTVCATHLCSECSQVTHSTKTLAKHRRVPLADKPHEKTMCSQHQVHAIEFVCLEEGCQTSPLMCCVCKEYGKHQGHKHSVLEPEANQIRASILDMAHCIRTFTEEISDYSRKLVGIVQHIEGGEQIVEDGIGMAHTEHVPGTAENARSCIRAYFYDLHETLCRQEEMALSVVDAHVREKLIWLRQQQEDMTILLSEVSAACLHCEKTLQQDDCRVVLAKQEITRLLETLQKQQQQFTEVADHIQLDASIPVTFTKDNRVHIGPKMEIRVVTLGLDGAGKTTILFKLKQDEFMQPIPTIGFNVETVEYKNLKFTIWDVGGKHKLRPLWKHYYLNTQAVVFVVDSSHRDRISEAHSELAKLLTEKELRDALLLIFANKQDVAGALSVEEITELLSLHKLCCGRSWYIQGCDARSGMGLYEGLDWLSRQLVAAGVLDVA

Variant	effect of a mutation on the interaction
A164T	with no effect

Variants of: B1
Conditions: with mdfi_human MDFI

Variant	effect of a mutation on the interaction
A164T	with no effect

Variants of: B2
Conditions: with mtus2_human MTUS2, Q5JR59
Chain of mtus2_human MTUS2, Q5JR59 (Q5JR59 whole entry): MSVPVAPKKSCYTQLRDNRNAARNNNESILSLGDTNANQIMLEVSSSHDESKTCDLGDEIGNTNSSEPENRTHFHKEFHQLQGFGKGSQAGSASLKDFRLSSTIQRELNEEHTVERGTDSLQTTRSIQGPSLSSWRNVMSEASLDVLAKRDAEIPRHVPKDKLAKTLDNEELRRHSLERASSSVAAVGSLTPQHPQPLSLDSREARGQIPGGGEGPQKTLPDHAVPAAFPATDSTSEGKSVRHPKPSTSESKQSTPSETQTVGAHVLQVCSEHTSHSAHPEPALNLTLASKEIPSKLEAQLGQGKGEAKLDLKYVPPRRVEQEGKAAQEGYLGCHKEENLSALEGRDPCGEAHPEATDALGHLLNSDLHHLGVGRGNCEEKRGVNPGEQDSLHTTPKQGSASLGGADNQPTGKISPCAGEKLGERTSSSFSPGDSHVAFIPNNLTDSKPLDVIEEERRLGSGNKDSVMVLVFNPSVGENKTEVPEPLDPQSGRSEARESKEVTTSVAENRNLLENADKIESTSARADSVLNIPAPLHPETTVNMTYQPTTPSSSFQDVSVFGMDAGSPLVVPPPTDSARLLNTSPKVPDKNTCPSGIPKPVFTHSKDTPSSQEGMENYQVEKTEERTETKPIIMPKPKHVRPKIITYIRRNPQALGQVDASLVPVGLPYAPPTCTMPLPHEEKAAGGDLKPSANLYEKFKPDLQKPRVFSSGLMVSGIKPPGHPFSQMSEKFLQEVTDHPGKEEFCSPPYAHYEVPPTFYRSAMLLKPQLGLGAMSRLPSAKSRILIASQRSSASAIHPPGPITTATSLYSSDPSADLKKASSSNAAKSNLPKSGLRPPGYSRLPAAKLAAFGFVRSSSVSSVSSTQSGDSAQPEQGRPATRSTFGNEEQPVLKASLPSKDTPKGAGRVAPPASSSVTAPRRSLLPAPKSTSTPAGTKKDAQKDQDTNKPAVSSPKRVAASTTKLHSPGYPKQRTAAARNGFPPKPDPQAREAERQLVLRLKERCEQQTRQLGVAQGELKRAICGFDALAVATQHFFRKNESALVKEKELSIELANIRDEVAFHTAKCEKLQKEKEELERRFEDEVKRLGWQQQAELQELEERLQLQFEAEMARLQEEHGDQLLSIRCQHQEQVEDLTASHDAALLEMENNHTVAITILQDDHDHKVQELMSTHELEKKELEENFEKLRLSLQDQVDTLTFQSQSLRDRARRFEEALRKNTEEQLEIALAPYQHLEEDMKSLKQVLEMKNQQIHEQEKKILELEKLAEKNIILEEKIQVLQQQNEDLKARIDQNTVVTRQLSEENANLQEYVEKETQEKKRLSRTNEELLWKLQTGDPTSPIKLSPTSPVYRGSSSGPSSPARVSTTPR

Variant	effect of a mutation on the interaction
G302R	with no effect

Variants of: B3
Conditions: with kr103_human KRTAP10-3, P60369

Variant	effect of a mutation on the interaction
R8Q	with no effect

Variants of: B4
Conditions: with snab_human NAPB

Variant	effect of a mutation on the interaction
H198Y	with no effect
G276S	with no effect

Variants of: B5
Conditions: with k22e_human KRT2, P35908
Chain of k22e_human KRT2, P35908 (P35908 whole entry): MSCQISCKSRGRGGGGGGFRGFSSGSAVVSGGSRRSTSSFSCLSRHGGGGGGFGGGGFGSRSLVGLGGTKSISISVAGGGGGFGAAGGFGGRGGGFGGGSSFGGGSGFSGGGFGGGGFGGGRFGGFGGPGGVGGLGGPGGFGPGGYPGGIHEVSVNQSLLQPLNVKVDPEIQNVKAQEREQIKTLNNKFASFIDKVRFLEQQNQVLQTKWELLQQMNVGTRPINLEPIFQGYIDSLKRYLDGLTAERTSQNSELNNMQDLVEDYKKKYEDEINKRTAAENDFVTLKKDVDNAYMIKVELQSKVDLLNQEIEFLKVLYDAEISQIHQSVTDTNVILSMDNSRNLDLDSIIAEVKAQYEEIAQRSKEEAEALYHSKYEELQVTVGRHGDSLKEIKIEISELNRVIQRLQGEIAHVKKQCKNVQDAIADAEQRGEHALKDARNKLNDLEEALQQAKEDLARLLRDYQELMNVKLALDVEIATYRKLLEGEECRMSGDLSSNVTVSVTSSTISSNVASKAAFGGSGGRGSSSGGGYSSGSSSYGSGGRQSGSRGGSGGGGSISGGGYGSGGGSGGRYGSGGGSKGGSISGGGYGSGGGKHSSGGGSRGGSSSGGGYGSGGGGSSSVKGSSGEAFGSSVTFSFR

Variant	effect of a mutation on the interaction
R355H	with no effect

Variants of: B5
Conditions: with k2c4_human KRT4, P19013
Chain of k2c4_human KRT4, P19013 (P19013 whole entry): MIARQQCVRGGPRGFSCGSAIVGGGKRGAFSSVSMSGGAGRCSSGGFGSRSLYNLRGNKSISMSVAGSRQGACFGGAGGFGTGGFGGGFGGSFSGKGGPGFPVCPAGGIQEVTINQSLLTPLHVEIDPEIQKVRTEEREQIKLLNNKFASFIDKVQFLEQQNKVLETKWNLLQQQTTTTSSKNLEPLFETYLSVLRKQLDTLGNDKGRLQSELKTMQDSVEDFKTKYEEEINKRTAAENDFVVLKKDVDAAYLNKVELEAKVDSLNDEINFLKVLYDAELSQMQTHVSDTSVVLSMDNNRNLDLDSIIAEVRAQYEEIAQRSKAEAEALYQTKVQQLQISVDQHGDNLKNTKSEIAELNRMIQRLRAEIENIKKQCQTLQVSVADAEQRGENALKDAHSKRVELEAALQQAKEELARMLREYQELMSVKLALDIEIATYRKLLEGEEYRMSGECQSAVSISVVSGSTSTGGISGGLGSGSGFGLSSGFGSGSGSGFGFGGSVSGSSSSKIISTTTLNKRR

Variant	effect of a mutation on the interaction
R355H	with no effect

Variants of: B5
Conditions: with KRT6A

Variant	effect of a mutation on the interaction
R355H	with no effect

Variants of: B5
Conditions: with ccnc_human CCNC

Variant	effect of a mutation on the interaction
R355H	with no effect
